The labels stand for the following.
T1: Soluble PAR2 StaR (recombinant human PAR2 StaR protein in detergent, construct not stated) (human, UniProt P55085 37-377, limits assumed)
T1 construct: also called purified PAR2
T1 sequence: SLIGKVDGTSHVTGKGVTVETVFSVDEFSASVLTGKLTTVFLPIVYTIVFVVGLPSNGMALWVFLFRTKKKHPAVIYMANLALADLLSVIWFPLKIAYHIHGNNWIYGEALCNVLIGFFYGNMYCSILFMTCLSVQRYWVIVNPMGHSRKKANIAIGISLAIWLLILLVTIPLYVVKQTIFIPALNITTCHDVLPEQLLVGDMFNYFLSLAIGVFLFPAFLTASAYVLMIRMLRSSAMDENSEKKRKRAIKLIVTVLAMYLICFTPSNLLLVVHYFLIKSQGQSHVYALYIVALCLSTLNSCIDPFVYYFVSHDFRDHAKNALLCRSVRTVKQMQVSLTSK

T2: Wildtype human PAR2 expressed on cells (human, UniProt P55085 37-397)
T2 sequence: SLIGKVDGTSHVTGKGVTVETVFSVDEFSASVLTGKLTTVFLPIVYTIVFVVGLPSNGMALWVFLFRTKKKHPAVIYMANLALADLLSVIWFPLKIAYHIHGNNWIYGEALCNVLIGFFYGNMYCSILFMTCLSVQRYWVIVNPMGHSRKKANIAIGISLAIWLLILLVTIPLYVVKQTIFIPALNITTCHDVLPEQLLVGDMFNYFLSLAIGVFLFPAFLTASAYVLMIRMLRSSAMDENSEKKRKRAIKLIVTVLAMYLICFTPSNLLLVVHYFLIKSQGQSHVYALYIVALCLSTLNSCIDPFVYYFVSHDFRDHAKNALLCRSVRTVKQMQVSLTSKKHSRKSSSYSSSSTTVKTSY

T3: Wildtype human PAR 1 (human, UniProt P25116 42-425)
T3 sequence: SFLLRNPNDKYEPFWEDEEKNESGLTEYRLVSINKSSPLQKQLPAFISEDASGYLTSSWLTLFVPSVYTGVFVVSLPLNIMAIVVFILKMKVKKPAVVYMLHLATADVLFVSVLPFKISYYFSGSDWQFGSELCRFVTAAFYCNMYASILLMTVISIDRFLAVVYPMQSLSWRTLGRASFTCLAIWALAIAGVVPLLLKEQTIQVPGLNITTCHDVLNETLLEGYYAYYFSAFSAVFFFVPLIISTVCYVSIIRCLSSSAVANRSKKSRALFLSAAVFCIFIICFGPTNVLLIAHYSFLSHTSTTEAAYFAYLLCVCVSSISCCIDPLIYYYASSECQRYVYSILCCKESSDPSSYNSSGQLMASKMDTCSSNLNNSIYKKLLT

B1: Y022870 (antibody, human IgG1, lambda, V domains shown)
VH: EVQLLESGGGLVQPGGSLRLSCAASGFSFSRYAITWVRQAPGKGLEWVSTISALGLETYYAESVRGRFTISRDNSKNTLYLQMNSLRAEDTAVYYCARGFHYTHSGKRYYYPFDIWGQGTLVTVSS
VL: QSALTQPASVSGSPGQSITISCTGTSSDVGSYNLVSWYQQHPGKAPKLMIYEGSKRPSGVSNRFSGSKSGNTASLTISGLQAEDEADYYCSQYATFIAFAVFGGGTKLTVLG
notes: also called Y22870
B2: Y022877 (antibody, human IgG1, lambda, V domains shown)
VH: B1 VH with S28T, I34M, A53G, L56Q, T58A, E62G, R65K
VL: B1 VL
notes: also called Y22877
B3: Y022883 (antibody, human IgG1, lambda, V domains shown)
VH: B1 VH with S30T, T35S, T50V, A53G, L54H, L56S, T58A, Y59N, R65K
VL: B1 VL
notes: also called Y22883; Y02283

The text below walks through data of patent US20250313621A1 (NXERA PHARMA UK, published 2025).

Where a chain is given by its changes, count along the chain named.

One assay has as its target T1, Soluble PAR2 StaR (recombinant human …). Description: SPR Biacore; soluble PAR2 StaR.
B1: the equilibrium dissociation constant (Kd) was 0.21 nM, the koff was found to be 7e-06 s⁻¹ and the kon is 34000 M⁻¹ s⁻¹.

Regarding B2, the Kd turned out to be 0.3 nM, the koff came out at 8e-06 s⁻¹ and the kon came out at 27000 M⁻¹ s⁻¹.

Consider B3, for which the Kd came to 0.4 nM, the koff stood at 1.2e-05 s⁻¹ and the kon is 30000 M⁻¹ s⁻¹.

A further assay concerns the target T2, Wildtype human PAR2 expressed on cells. Description: cell-based or functional assay.
As for B1, the “AP IC50, HT-29 FLIPR calcium mobilisation” value turned out to be 17.8 nM and the “Trypsin IC50, HT-29 FLIPR calcium mobilisation” value worked out at 40 nM.

As for B2, the “AP IC50, HT-29 FLIPR calcium mobilisation” value is 44.3 nM and the “Trypsin IC50, HT-29 FLIPR calcium mobilisation” value was determined as 49 nM.

For B3, the “AP IC50, HT-29 FLIPR calcium mobilisation” value is 42 nM and the “Trypsin IC50, HT-29 FLIPR calcium mobilisation” value turned out to be 47 nM.

The next assay concerns the target T1, Soluble PAR2 StaR (recombinant human …). Description: SPR Biacore T200; IgG captured, PAR2 as analyte; 25 C, 30 min dissociation. On the procedure:
The assay of PAR2 interaction with anti-PAR2 antibodies was carried out using a Biacore T200 instrument (GE Healthcare). Anti-human IgG antibody (Human Antibody Capture Kit, GE Healthcare) was immobilised by amine coupling in the target and reference flow cells of sensor chip CM3 (GE Healthcare) to a surface density of 2700 to 3000 resonance units (RU). Immobilisation was carried out at 25° C. in HBS-EP+buffer (GE Healthcare). The buffer was then changed to 50 mM HEPES, pH 7.5, 150 mM NaCl, 0.02% LMNG, 0.002% CHS for the PAR2-antibody interaction assay which was carried out at either 25 or 37° C. Each cycle of the assay began with antibody capture in the target flow cell to a level of 400 to 450 RU. PAR2 was then injected over target and reference flow cells at three concentrations, 5 min each, followed by 30-min dissociation. The surface was then regenerated with a solution provided in the kit (Human Antibody Capture Kit, GE Healthcare). With every antibody tested the first cycle was a blank (three injections of the running buffer) and the second a series of 50, 100, and 200 nM PAR2 injections.
For the molecule B1, the Kd was 0.43 nM, the koff turned out to be 1.2e-05 s⁻¹, the kon was 28000 M⁻¹ s⁻¹ and the “t½” value came to 16.1 h.

Take B2: the Kd worked out at 0.23 nM, the koff was determined as 5.1e-06 s⁻¹, the kon worked out at 22000 M⁻¹ s⁻¹ and the “t½” value worked out at 37.9 h.

B3: the Kd is 0.2 nM, the koff was 8.1e-06 s⁻¹, the kon came to 40000 M⁻¹ s⁻¹ and the “t½” value was 23.7 h.

A further assay addresses T2, Wildtype human PAR2 expressed on cells. Description: cell-based or functional assay. This is another data set of the same source.
For B1, the “% Max Inhibition, AP challenge, IP-One” value came to 203%.

Turning to B2, the “% Max Inhibition, AP challenge, IP-One” value was found to be 167%.

In the case of B3, the “% Max Inhibition, AP challenge, IP-One” value was 149%.

Another assay deals with T1, Soluble PAR2 StaR (recombinant human …). Description: SPR Biacore T200; IgG captured, PAR2 as analyte; 25 C, 90 min dissociation.
With B1, the Kd amounted to 0.21 nM, the koff stood at 7e-06 s⁻¹, the kon came out at 34000 M⁻¹ s⁻¹ and the “t½” value stood at 27.6 h.

As to B2, the Kd stood at 0.3 nM, the koff was determined as 8e-06 s⁻¹, the kon turned out to be 27000 M⁻¹ s⁻¹ and the “t½” value is 24.1 h.

B3: the Kd was 0.4 nM, the koff came out at 1.2e-05 s⁻¹, the kon was 30000 M⁻¹ s⁻¹ and the “t½” value is 16.2 h.

The next assay deals with T3, Wildtype human PAR 1. Description: cell-based or functional assay.
In the case of B1, the “Human PAR1 SFLLR IC50, IP-One” value was > 3160 nM and the “SFLLR fold inhibition, human PAR1, IP-One” value (shortened to “SFLLR fold inhibition”) turned out to be 0 fold.

As for B2, the “Human PAR1 SFLLR IC50, IP-One” value is > 3160 nM and the “SFLLR fold inhibition” value was 0 fold.

B3: the “Human PAR1 SFLLR IC50, IP-One” value was > 3160 nM and the “SFLLR fold inhibition” value amounted to 0 fold.
